Measured values: US20040138156A1, “Therapeutic regulation of deoxyribonuclease-1-like-3 activity” (priority 2002, published 2004)
Changes are numbered by the printed parent chain. Names may count otherwise. “Also recorded” adds a separate entry of the source. Where two headings read alike, the source gives them in different places.

B1: D3DCT: Murine D1L3 truncated by a stop codon at Ser-289, lacking the basic C-terminus (289-310) (protein)
chain: LRLCSFNVRSFGASKKENHEAMDIIVKIIKRCDLILLMEIKDSSNNICPMLMEKLNGNSRRSTTYNYVISSRLGRNTYKEQYAFVYKEKLVSVKTKYHYHDYQDGDTDVFSREPFVVWFHSPFTAVKDFVIVPLHTTPETSVKEIDELVDVYTDVRSQWKTENFIFMGDFNAGCSYVPKKAWQNIRLRTDPKFVWLIGDQEDTTVKKSTSCAYDRIVLCGQEIVNSVVPRSSGVFDFQKAYDLSEEEALDVSDHFPVEFKLQS
B2: Y261 C: Human DNASE1L3 with Tyr>Cys at aa 261, HA-tagged, expressed in HeLa (protein, UniProt Q13609 21-305, looked up, variant Y261C)
Deoxyribonuclease gamma: MRICSFNVRSFGESKQEDKNAMDVIVKVIKRCDIILVMEIKDSNNRICPILMEKLNRNSRRGITYNYVISSRLGRNTYKEQYAFLYKEKLVSVKRSYHYHDYQDGDADVFSREPFVVWFQSPHTAVKDFVIIPLHTTPETSVKEIDELVEVYTDVKHRWKAENFIFMGDFNAGCSYVPKKAWKNIRLRTDPRFVWLIGDQEDTTVKKSTNCAYDRIVLRGQEIVSSVVPKSNSVFDFQKACKLTEEEALDVSDHFPVEFKLQSSRAFTNSKKSVTLRKKTKSKRS
modifications: HA tag
notes: Human DNASE1L3 with Tyr>Cys at aa 261, HA-tagged, expressed in HeLa
B3: N191K: Human D1L3 with N191K mutation, expressed as GST fusion in E. coli (protein)
chain: B2 Deoxyribonuclease gamma with N171K, C241Y
B4: 89I: Murine D1L3 variant of NZ and MRL strains, isoleucine for threonine at residue 89 (protein)
chain: LRLCSFNVRSFGASKKENHEAMDIIVKIIKRCDLILLMEIKDSSNNICPMLMEKLNGNSRRSTIYNYVISSRLGRNTYKEQYAFVYKEKLVSVKTKYHYHDYQDGDTDVFSREPFVVWFHSPFTAVKDFVIVPLHTTPETSVKEIDELVDVYTDVRSQWKTENFIFMGDFNAGCSYVPKKAWQNIRLRTDPKFVWLIGDQEDTTVKKSTSCAYDRIVLCGQEIVNSVVPRSSGVFDFQKAYDLSEEEALDVSDHFPVEFKLQSSRAFTNNRKSVSLKKRKKGNRS
B5: N196K-D3: Murine D1L3 with conserved asparagine 196 changed to lysine; inactive nuclease (protein)
chain: B4 chain with I64T, N171K

What was measured:
[1] = system: free DNA; experiment: Radial diffusion assay (RDA) of nuclease activity against free DNA in conditioned media; format: biochemical; conditions: for RDA nuclease activity of conditioned media (in words): media conditioned by transfected HeLa cells
Protocol: (§1) Transfection Reagents and Resistance Assays. Lipofection of respective pcDNA3.1-D1 or -D3 ([…] purified with Promega Wizard Plus DNA system) was performed independently into 1-2 million HeLa cells, which produce a low background of secreted nuclease activity, when grown in DMEM with 10% FCS (LifeTech) in 6 well culture plates (Becton-Dickinson). […] Media of the transfected cells were conditioned for 36-48 hours and served as source of the respective enzymes. Nuclease activity in conditioned supernatant was measured by RDAs, zymograms and by testing activity against supercoiled pBluescript (Stratagene).
Nuclease Assays. Nuclease activity against “naked” or free DNA in CM was quantified by densitometry of RDAs. For assays of media by murine cells, RDAs were performed using conditioned media, after 36 hour incubation of equal numbers of target cell population. Each conditioned media was sampled in triplicate. RDAs for all four mice were performed on a single dish. For RDAs, 2-5 ul of conditioned supernatant was dotted on 100 mm dishes containing 2% agarose, 250 ug/ml DNA, 0.001% EtBr, 0.5% filtered milk, 10 mM Ca^+2/MgCl2; and 12.5 ug/ml kanamycin. Multiple observations were generated for every sample obtained. After 24 hours of 37° incubation, plates are photographed under UV transillumination; and scanned photos were analyzed with NIH image. For RDAs, the activity was quantified as the product of mean density and area (traced on image) of zones of clearing. For observations of serum/urine, 2-5 ul of serum were dotted on agarose plates.
(§2) Zymograms are in-gel renaturation assays performed by SDS-PAGE through a gel impregnated with 200 µg/ml DNA and ethidium bromide, eluting away SDS with repeated washes in 25 mM Tris-HCl pH 7.5, then incubating for 12-16 hours at 37° C. in 25 mM Tris-HCl pH 7.5 with 10 mM Ca^+2/Mg^+2 buffer. Activity is measured as dark “bands” of DNA digestion (Rosenthal et al., (1977) Anal. Biochem. 80, 76-90) and quantified using scanned images using NIH Image. Photographed RDA results were scanned 600 dpi Tiff images, and activity was measured as pixel area times density of traced zones of clearing (n=3 for each zone). Student's T-test was used to compare paired results. Nuclease activity ratios were obtained by comparing intra-plate results.

[2] = system: HeLa cells; experiment: BT assay: liposomal N1-eGFP transfection of HeLa cells in DNASE-conditioned media, GFP immunoblot; format: cell-based; conditions: for BT activity / GFP expression or transfection efficiency in cells exposed to undiluted conditioned media: FuGENE-6, anti-GFP immunoblot
Protocol: In the main assay, an eukaryotic marker such as green fluorescent protein (GFP) expression plasmid complexed with a lipid reagent is transfected into HeLa cells incubated in control media, D1L3-conditioned media, or D1-conditioned media (FIG. 4). The assay is not limited to the use of GFP as a marker, but could use any of many expressed biomarkers encoded by nucleotides that can be assayed either immunochemistry, fluorescent detection, or enzymatic detectection, and these include but are not circumscribed to luciferase, chloramphenicol acetyl-transferase, antibiotic or chemical resistance genes, Beta-galactosidase, FLAG-, myc-hemaglutinnin-, or other epitope tagged molecules, as well as other markers of gene or nucleotide transduction. The endpoint of the assay is the detection of a synthesized protein, but could easily have been the detection of a transcribed gene product, since the assay ultimately measures the ability of D1L3 added the media/milieu overlaying the cells to block the ultimate association of an expressible plasmid with the transcriptional machinery.
as §1
To test for the ability of the nucleases to block transfection, the media in individual wells of naive HeLa cells were replaced with conditioned media, and cells transfected with […] of N1-eGFP plasmid (Clontech) using various transfection reagents (FIG. 11) and their respective protocols. GFP expression by immunoblot directly correlated with transfection efficiency in present experiments. Thus, transfection efficiency was compared by densitometric analysis of GFP immunoblots.
GFP expression was also examined by fluorescent microscopy using a FITC filter. For microscopy, cells were fixed for 5 minutes in 4% paraformaldehyde dissolved into 1% PBS.
Antibody Reagents and Immunoblotting. After 24-36 hours, cells transfected with N1-eGFP were lysed in SDS-buffer and immunoblotted for expression with anti-GFP at 1:5000 dilution (Clontech). To confirm nearly equal protein loading per lane, anti-β-actin monoclonal antibody at 1:7,000 dilution (Sigma) were prepared. For immunoblots, […] protein was eletrophoretically separated by 12% SDS-PAGE gel, followed by electrotransfer to Immobilon-P membranes (Millipore) for expression studies. Immunoblotting was performed using ECL detection (Amersham).
Transfection efficiency was compared, wherever possible, by pixel densitometry of the scanned images using Scion Image 4.02 software.

[3] = system: DNA; experiment: DNA-SDS zymogram of nuclease activity; format: biochemical
Protocol: as §2
Prokaryotic Expression and GST Purification. Human D1L3-GST expression was performed by growing transformed BL21 Cells (Stratagene) at log phase were induced in 50 mg/ml IPTG for 5-7 hours at 32°. Bacterial pellets were lysed in 1×SDS-PAGE buffer and loaded on SDS-12% PAGE.

Molecule | RDA nuclease activity of conditioned media (in words) [1] | BT activity / GFP expression or transfection efficiency in cells exposed to undiluted conditioned media [2] | nuclease activity by zymogram (in words) [3] | further results
B1 | greater RDA activity than D3 | did not differ significantly from controls; also recorded: no significant decrease |  | RDA nuclease activity of conditioned media (in words) ([1]; listed as D3 pCT): slightly increased nuclease activity; BT activity / GFP expression or transfection efficiency in cells exposed to undiluted conditioned media ([2]; listed as D3 ρCT): unaffected
B2 | complete loss of function | complete loss of function | complete loss of function | RDA nuclease activity of conditioned media (in words) ([1]; listed as 261 C): only faint, if any, activity; BT activity / GFP expression or transfection efficiency in cells exposed to undiluted conditioned media ([2]; listed as 261 C): absence of barrier activity; nuclease activity by zymogram (in words) ([3]; listed as 261 C): no activity
B3 |  |  | no detectable nuclease activity | 
B4 |  | saturated BT activity |  | RDA-nuclease activity relative to the 89T enzyme ([1]; in vitro): about half; defect in BT activity ([2]; normalized to immunoblotted D3 protein levels, versus 89T, n=6): ~8 fold; GFP transfection in ten-fold diluted conditioned media ([2]; ten-fold (five and ten fold) dilution of conditioned media): liposomal gene transfection is possible; also recorded: shows transfection; zymogram nuclease activity relative to 89T-transfected cells ([3]; HeLa-expressed, normalized to immunoblotted D1L3 levels, n=16): 44%; decreased zymogram activity relative to protein levels ([3]; versus 89T, GST fusions and HeLa-expressed enzymes): ~50%
B5 | Nearly no clearing; also recorded: negligible background RDA activity; also recorded: no nuclease activity above background | did not differ significantly from controls; also recorded: incapable of providing a barrier to transfection | no nuclease activity above background | 
